# Experimental data: PMC7065454 (Molecular cell, 2020)
# Positions count from the first letter of the chain named. In names and notes the source's numbering stands. Several values for one entry are separate records, joined by “and”; a condition that tells them apart may be missing. Equal entries are not always repeated. Where two headings read alike, the source gives them in different places.
# T1: Vm NucC (Vibrio metoecus, UniProt P0DUD6)
# T1 sequence (P0DUD6 1-245): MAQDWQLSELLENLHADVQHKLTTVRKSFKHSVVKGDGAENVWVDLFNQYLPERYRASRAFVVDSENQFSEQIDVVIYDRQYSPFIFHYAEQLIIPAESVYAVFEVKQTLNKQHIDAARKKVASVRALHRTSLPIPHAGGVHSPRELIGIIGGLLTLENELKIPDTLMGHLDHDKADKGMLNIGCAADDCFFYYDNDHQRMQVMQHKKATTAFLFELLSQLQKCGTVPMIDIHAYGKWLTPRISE
# B1: E. coli MS115-1 NucC (wild type) (enzyme, UniProt D7Y2H5 1-241, looked up)
# chain: MSDWSLSQLFASLHEDIQLRLGTARKAFQHPGAKGDASEGVWIEMLDTYLPKRYQAANAFVVDSLGNFSDQIDVVVFDRQYSPFIFKFNEQIIVPAESVYAVFEAKQSASADLVAYAQRKVASVRRLHRTSLPIPHAGGTYPAKPLIPILGGLLTFESDWSPALGMSFDKALNGDLSDGRLDMGCVASHGHFYFNNIDSKFNFEHGNKPATAFLFRLIAQLQFSGTVPMIDIDAYGKWLAN
# B2: Ec NucC L19A mutant with D73N (SEC-MALS sample) (enzyme, E. coli MS115-1, UniProt D7Y2H5 1-241, looked up)
# chain: B1 chain with L19A, D73N
# B3: Ec NucC W4A mutant with D73N (SEC-MALS sample) (enzyme, E. coli MS115-1, UniProt D7Y2H5 1-241, looked up)
# chain: B1 chain with W4A, D73N
# B4: Ec NucC L19D mutant with D73N (SEC-MALS sample) (enzyme, E. coli MS115-1, UniProt D7Y2H5 1-241, looked up)
# chain: B1 chain with L19D, D73N
# B5: Vibrio metoecus sp. RC341 NucC (enzyme, UniProt P0DUD6 1-245, looked up)
# chain: T1 sequence (P0DUD6 1-245)
# B6: P. aeruginosa ATCC 27853 NucC (wild type) (enzyme)
# chain: MSQWSLSQLLSSLHEDIQQRLSVVRKTFGHPGTKGDASENVWIDMLDTYLPKRYQAAKAHVVDSLGNFSQQIDVVVFDRQYSPFIFTYENETIIPAESVYAVFEAKQTADAGLVAYAQEKVASVRRLHRTSLPIPHAGGTYPAKPLIPILGGLLTFESEWSPALGPSMDKALNANLTEGRLDIGCVAAHGHFFYDQASGAYSYTNENKPATAFLFKLIAQLQFSGTVPMIDVEAYGQWLTK
# Legend:
# Ec NucC [1] = molecular target: T2, Ec NucC (Escherichia coli, UniProt D7Y2H5); test: ITC; assay type: binding
# Ec NucC [2] = molecular target: T2, Ec NucC; test: ITC; assay type: binding; remark: listed apart in the source
# Vm NucC = molecular target: T1, Vm NucC; test: plasmid digestion assay, weak activation; assay type: biochemical
# Ec NucC [3] = molecular target: T2, Ec NucC; test: ITC; assay type: binding; remark: listed apart in the source
# Pa NucC = Pa NucC (Pseudomonas aeruginosa, UniProt P0DTF8, D73N); test: co-crystal structure at […] Å; assay type: binding
# crystal structure = molecular target: the molecule itself; test: crystal structure
# SEC-MALS [4] = molecular target: the molecule itself; test: SEC-MALS
# SEC-MALS [5] = molecular target: the molecule itself; test: SEC-MALS; remark: listed apart in the source
molecule,measurement,setting,value
"Nc1ncnc2c1ncn2[C@@H]1O[C@@H]2COP(=O)(O)O[C@H]3[C@@H](O)[C@H](n4cnc5c(N)ncnc54)O[C@@H]3COP(=O)(O)O[C@H]2[C@H]1O [3′,3′ cyclic di-AMP]",Kd,Ec NucC [1],2600 nM
Nc1ncnc2c1ncn2[C@@H]1O[C@H](COP(=O)(O)O[C@H]2[C@@H](O)[C@H](n3cnc4c(N)ncnc43)O[C@@H]2COP(=O)(O)O)[C@@H](O)[C@H]1O [5′-pApA],Kd,Ec NucC [2],4400 nM
Nc1ncnc2c1ncn2[C@@H]1O[C@@H]2COP(=O)(O)O[C@H]3[C@@H](O)[C@H](n4cnc5c(N)ncnc54)O[C@@H]3COP(=O)(O)O[C@H]2[C@H]1O [cAA],"plasmid digestion assay, weak activation",Vm NucC,weakly activated by both cAA and cAAG
Nc1nc2c(ncn2[C@@H]2O[C@@H]3COP(=O)(O)O[C@H]4[C@@H](O)[C@H](n5cnc6c(N)ncnc65)O[C@@H]4COP(=O)(O)O[C@H]4[C@@H](O)[C@H](n5cnc6c(N)ncnc65)O[C@@H]4COP(=O)(O)O[C@H]3[C@H]2O)c(=O)[nH]1 [cAAG],"plasmid digestion assay, weak activation",Vm NucC,weakly activated by both cAA and cAAG
Nc1ncnc2c1ncn2[C@@H]1O[C@@H]2COP(=O)(O)O[C@H]3[C@@H](O)[C@H](n4cnc5c(N)ncnc54)O[C@@H]3COP(=O)(O)O[C@H]3[C@@H](O)[C@H](n4cnc5c(N)ncnc54)O[C@@H]3COP(=O)(O)O[C@H]2[C@H]1O [cAAA],Kd,Ec NucC [3],700 nM
same,co-crystal structure at 1.45 Å; SEC-MALS hexamer assembly of Pa NucC,Pa NucC,We obtained crystals of P. aeruginosa ATCC27853 NucC D73N mutant bound to cAAA
B1,stoichiometry N,crystal structure,6
same,stoichiometry N,SEC-MALS [4],3
B2,binding result,SEC-MALS [5],binds
B3,binding result,SEC-MALS [5],binds
B4,stoichiometry N,SEC-MALS [5],3
B5,stoichiometry N,SEC-MALS [4],3 and 6
B6,stoichiometry N,SEC-MALS [5],6
same,stoichiometry N,SEC-MALS [4],3
